# Target: GFRAL/RET overexpressed on HEK293 cells (GFRAL/RET/SRE-luc-overexpressing HEK293 cell line) (UniProt Q6UXV0 19-394; P07949 29-1114, limits assumed)
# Assay: cell-based or functional assay
# Chain of GFRAL/RET overexpressed on HEK293 cells (GFRAL/RET/SRE-luc-overexpressing HEK293 cell line) (Q6UXV0 19-394 limits assumed, chain 1 of 2): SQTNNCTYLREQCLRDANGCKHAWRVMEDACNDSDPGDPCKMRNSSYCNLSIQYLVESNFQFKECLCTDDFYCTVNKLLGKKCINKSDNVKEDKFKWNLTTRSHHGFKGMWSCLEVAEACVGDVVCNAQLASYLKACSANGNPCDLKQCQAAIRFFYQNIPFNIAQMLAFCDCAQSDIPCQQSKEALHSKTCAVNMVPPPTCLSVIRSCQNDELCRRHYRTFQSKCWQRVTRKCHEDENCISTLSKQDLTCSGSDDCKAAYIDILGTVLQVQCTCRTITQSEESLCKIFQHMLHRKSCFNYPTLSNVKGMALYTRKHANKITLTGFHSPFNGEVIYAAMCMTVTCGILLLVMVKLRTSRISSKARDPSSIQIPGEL
# Chain of GFRAL/RET overexpressed on HEK293 cells (GFRAL/RET/SRE-luc-overexpressing HEK293 cell line) (P07949 29-1114 limits assumed, chain 2 of 2): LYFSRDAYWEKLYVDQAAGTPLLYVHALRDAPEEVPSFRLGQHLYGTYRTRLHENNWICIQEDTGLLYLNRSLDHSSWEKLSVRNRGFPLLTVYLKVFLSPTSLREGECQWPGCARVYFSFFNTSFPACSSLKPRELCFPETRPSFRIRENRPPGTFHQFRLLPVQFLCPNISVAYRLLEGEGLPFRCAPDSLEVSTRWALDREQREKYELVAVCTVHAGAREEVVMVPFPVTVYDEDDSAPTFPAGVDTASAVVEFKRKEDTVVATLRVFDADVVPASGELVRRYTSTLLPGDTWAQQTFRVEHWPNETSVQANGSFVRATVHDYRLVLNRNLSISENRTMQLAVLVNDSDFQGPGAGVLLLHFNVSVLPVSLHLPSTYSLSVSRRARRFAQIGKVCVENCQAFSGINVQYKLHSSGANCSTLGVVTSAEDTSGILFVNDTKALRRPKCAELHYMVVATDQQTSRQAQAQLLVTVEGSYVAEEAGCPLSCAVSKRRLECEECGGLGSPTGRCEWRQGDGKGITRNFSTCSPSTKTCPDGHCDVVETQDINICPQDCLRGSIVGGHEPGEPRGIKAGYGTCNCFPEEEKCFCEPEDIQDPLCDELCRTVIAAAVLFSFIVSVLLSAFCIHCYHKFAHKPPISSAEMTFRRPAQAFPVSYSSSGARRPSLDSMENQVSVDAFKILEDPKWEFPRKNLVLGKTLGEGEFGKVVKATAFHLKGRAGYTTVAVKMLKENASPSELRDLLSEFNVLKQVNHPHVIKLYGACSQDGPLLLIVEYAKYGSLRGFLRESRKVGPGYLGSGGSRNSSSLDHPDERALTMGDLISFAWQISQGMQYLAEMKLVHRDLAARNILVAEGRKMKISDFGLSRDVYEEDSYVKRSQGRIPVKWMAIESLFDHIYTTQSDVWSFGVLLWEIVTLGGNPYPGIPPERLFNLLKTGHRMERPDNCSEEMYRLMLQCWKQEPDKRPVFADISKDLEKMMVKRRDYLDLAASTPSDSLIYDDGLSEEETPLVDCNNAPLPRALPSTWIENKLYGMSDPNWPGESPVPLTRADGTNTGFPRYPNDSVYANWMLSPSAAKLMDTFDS
Binder,"EC50 (nM), SRE-luciferase reporter (RLU)","Emax (%), SRE-luciferase reporter (RLU), relative to FM9-6+Fc_hole"
FM9-1 + Fc_hole long-acting GDF15 fusion protein (dimer) (Fc fusion) chain 1: APEAAGGPSVFLFPPKPKDTLMISRTPEVTCVVVDVSHEDPEVKFNWYVDGVEVHNAKTKPREEQYASTYRVVSVLTVLHQDWLNGKEYKCKVSNKALPAPIEKTISKAKGQPREPQVYTLPPSREEMTKNQVSLWCLVKGFYPSDIAVEWESNGQPENNYKTTPPVLDSDGSFFLYSKLTVDKSRWQQGNVFSCSVMHEALHNHYTQKSLSLSPGKGSGGGGSGGGGSGGGGSNGDHCPLGPGRCCRLHTVRASLEDLGWADWVLSPREVQVTMCIGACPSQFRAANMHAQIKTRLHRLKPDTVPAPCCVPASYNPMVLIQKTDTGVSLQTYDDLLAKDCHCI chain 2: APEAAGGPSVFLFPPKPKDTLMISRTPEVTCVVVDVSHEDPEVKFNWYVDGVEVHNAKTKPREEQYASTYRVVSVLTVLHQDWLNGKEYKCKVSNKALPAPIEKTISKAKGQPREPQVYTLPPSREEMTKNQVSLSCAVKGFYPSDIAVEWESNGQPENNYKTTPPVLDSDGSFFLVSKLTVDKSRWQQGNVFSCSVMHEALHNHYTQKSLSLSPGK,9 nM,97.6%
FM9-5 + Fc_hole long-acting GDF15 fusion protein (dimer) (Fc fusion) chain 1: APEAAGGPSVFLFPPKPKDTLMISRTPEVTCVVVDVSHEDPEVKFNWYVDGVEVHNAKTKPREEQYASTYRVVSVLTVLHQDWLNGKEYKCKVSNKALPAPIEKTISKAKGQPREPQVYTLPPSREEMTKNQVSLWCLVKGFYPSDIAVEWESNGQPENNYKTTPPVLDSDGSFFLYSKLTVDKSRWQQGNVFSCSVMHEALHNHYTQKSLSLSPGKGSGGSSPTPTPTPTPTPTPTPTPTPTNGDHCPLGPGRCCRLHTVRASLEDLGWADWVLSPREVQVTMCIGACPSQFRAANMHAQIKTRLHRLKPDTVPAPCCVPASYNPMVLIQKTDTGVSLQTYDDLLAKDCHCI chain 2: APEAAGGPSVFLFPPKPKDTLMISRTPEVTCVVVDVSHEDPEVKFNWYVDGVEVHNAKTKPREEQYASTYRVVSVLTVLHQDWLNGKEYKCKVSNKALPAPIEKTISKAKGQPREPQVYTLPPSREEMTKNQVSLSCAVKGFYPSDIAVEWESNGQPENNYKTTPPVLDSDGSFFLVSKLTVDKSRWQQGNVFSCSVMHEALHNHYTQKSLSLSPGK,5.3 nM,100%
FM11-1 + Fc_hole long-acting GDF15 fusion protein (dimer) (Fc fusion) chain 1: APEAAGGPSVFLFPPKPKDTLMISRTPEVTCVVVDVSHEDPEVKFNWYVDGVEVHNAKTKPREEQYASTYRVVSVLTVLHQDWLNGKEYKCKVSNKALPAPIEKTISKAKGQPREPQVYTLPPSREEMTKNQVSLWCLVKGFYPSDIAVEWESNGQPENNYKTTPPVLDSDGSFFLYSKLTVDKSRWQQGNVFSCSVMHEALHNHYTQKSLSLSPGKGSGGGGSGGGGSGGGGSNSTCPLGPGRCCRLHTVRASLEDLGWADWVLSPREVQVTMCIGACPSQFRAANMHAQIKTRLHRLKPDTVPAPCCVPASYNPMVLIQKTDTGVSLQTYDDLLAKDCHCI chain 2: APEAAGGPSVFLFPPKPKDTLMISRTPEVTCVVVDVSHEDPEVKFNWYVDGVEVHNAKTKPREEQYASTYRVVSVLTVLHQDWLNGKEYKCKVSNKALPAPIEKTISKAKGQPREPQVYTLPPSREEMTKNQVSLSCAVKGFYPSDIAVEWESNGQPENNYKTTPPVLDSDGSFFLVSKLTVDKSRWQQGNVFSCSVMHEALHNHYTQKSLSLSPGK,9.7 nM,65.6%
FM9-6 + Fc_hole long-acting GDF15 fusion protein (dimer) (Fc fusion) chain 1: APEAAGGPSVFLFPPKPKDTLMISRTPEVTCVVVDVSHEDPEVKFNWYVDGVEVHNAKTKPREEQYASTYRVVSVLTVLHQDWLNGKEYKCKVSNKALPAPIEKTISKAKGQPREPQVYTLPPSREEMTKNQVSLWCLVKGFYPSDIAVEWESNGQPENNYKTTPPVLDSDGSFFLYSKLTVDKSRWQQGNVFSCSVMHEALHNHYTQKSLSLSPGKGSEAAAKEAAAKEAAAKEAAAKEAAAKNGDHCPLGPGRCCRLHTVRASLEDLGWADWVLSPREVQVTMCIGACPSQFRAANMHAQIKTRLHRLKPDTVPAPCCVPASYNPMVLIQKTDTGVSLQTYDDLLAKDCHCI chain 2: APEAAGGPSVFLFPPKPKDTLMISRTPEVTCVVVDVSHEDPEVKFNWYVDGVEVHNAKTKPREEQYASTYRVVSVLTVLHQDWLNGKEYKCKVSNKALPAPIEKTISKAKGQPREPQVYTLPPSREEMTKNQVSLSCAVKGFYPSDIAVEWESNGQPENNYKTTPPVLDSDGSFFLVSKLTVDKSRWQQGNVFSCSVMHEALHNHYTQKSLSLSPGK,6.3 nM,–
FM11-2 + Fc_hole long-acting GDF15 fusion protein (dimer) (Fc fusion) chain 1: APEAAGGPSVFLFPPKPKDTLMISRTPEVTCVVVDVSHEDPEVKFNWYVDGVEVHNAKTKPREEQYASTYRVVSVLTVLHQDWLNGKEYKCKVSNKALPAPIEKTISKAKGQPREPQVYTLPPSREEMTKNQVSLWCLVKGFYPSDIAVEWESNGQPENNYKTTPPVLDSDGSFFLYSKLTVDKSRWQQGNVFSCSVMHEALHNHYTQKSLSLSPGKGSGGGGSGGGGSGGGGSGGGGSGGGGSNSTCPLGPGRCCRLHTVRASLEDLGWADWVLSPREVQVTMCIGACPSQFRAANMHAQIKTRLHRLKPDTVPAPCCVPASYNPMVLIQKTDTGVSLQTYDDLLAKDCHCI chain 2: APEAAGGPSVFLFPPKPKDTLMISRTPEVTCVVVDVSHEDPEVKFNWYVDGVEVHNAKTKPREEQYASTYRVVSVLTVLHQDWLNGKEYKCKVSNKALPAPIEKTISKAKGQPREPQVYTLPPSREEMTKNQVSLSCAVKGFYPSDIAVEWESNGQPENNYKTTPPVLDSDGSFFLVSKLTVDKSRWQQGNVFSCSVMHEALHNHYTQKSLSLSPGK,7.7 nM,79.4%

# Other lines, results leading:
"EC50 (nM), SRE-luciferase reporter (RLU)","Emax (%), SRE-luciferase reporter (RLU), relative to FM9-6+Fc_hole",Binder
5.1 nM,68.2%,FM11-5 + Fc_hole long-acting GDF15 fusion protein (dimer) (Fc fusion) chain 1: APEAAGGPSVFLFPPKPKDTLMISRTPEVTCVVVDVSHEDPEVKFNWYVDGVEVHNAKTKPREEQYASTYRVVSVLTVLHQDWLNGKEYKCKVSNKALPAPIEKTISKAKGQPREPQVYTLPPSREEMTKNQVSLWCLVKGFYPSDIAVEWESNGQPENNYKTTPPVLDSDGSFFLYSKLTVDKSRWQQGNVFSCSVMHEALHNHYTQKSLSLSPGKGSGGSSPTPTPTPTPTPTPTPTPTPTNSTCPLGPGRCCRLHTVRASLEDLGWADWVLSPREVQVTMCIGACPSQFRAANMHAQIKTRLHRLKPDTVPAPCCVPASYNPMVLIQKTDTGVSLQTYDDLLAKDCHCI chain 2: APEAAGGPSVFLFPPKPKDTLMISRTPEVTCVVVDVSHEDPEVKFNWYVDGVEVHNAKTKPREEQYASTYRVVSVLTVLHQDWLNGKEYKCKVSNKALPAPIEKTISKAKGQPREPQVYTLPPSREEMTKNQVSLSCAVKGFYPSDIAVEWESNGQPENNYKTTPPVLDSDGSFFLVSKLTVDKSRWQQGNVFSCSVMHEALHNHYTQKSLSLSPGK
45.4 nM,105%,FM11-4 + Fc_hole long-acting GDF15 fusion protein (dimer) (Fc fusion) chain 1: APEAAGGPSVFLFPPKPKDTLMISRTPEVTCVVVDVSHEDPEVKFNWYVDGVEVHNAKTKPREEQYASTYRVVSVLTVLHQDWLNGKEYKCKVSNKALPAPIEKTISKAKGQPREPQVYTLPPSREEMTKNQVSLWCLVKGFYPSDIAVEWESNGQPENNYKTTPPVLDSDGSFFLYSKLTVDKSRWQQGNVFSCSVMHEALHNHYTQKSLSLSPGKGSEEEAEEEAEEEAEEEAEEEAEEEANSTCPLGPGRCCRLHTVRASLEDLGWADWVLSPREVQVTMCIGACPSQFRAANMHAQIKTRLHRLKPDTVPAPCCVPASYNPMVLIQKTDTGVSLQTYDDLLAKDCHCI chain 2: APEAAGGPSVFLFPPKPKDTLMISRTPEVTCVVVDVSHEDPEVKFNWYVDGVEVHNAKTKPREEQYASTYRVVSVLTVLHQDWLNGKEYKCKVSNKALPAPIEKTISKAKGQPREPQVYTLPPSREEMTKNQVSLSCAVKGFYPSDIAVEWESNGQPENNYKTTPPVLDSDGSFFLVSKLTVDKSRWQQGNVFSCSVMHEALHNHYTQKSLSLSPGK
6.8 nM,80.3%,FM11-6 + Fc_hole long-acting GDF15 fusion protein (dimer) (Fc fusion) chain 1: APEAAGGPSVFLFPPKPKDTLMISRTPEVTCVVVDVSHEDPEVKFNWYVDGVEVHNAKTKPREEQYASTYRVVSVLTVLHQDWLNGKEYKCKVSNKALPAPIEKTISKAKGQPREPQVYTLPPSREEMTKNQVSLWCLVKGFYPSDIAVEWESNGQPENNYKTTPPVLDSDGSFFLYSKLTVDKSRWQQGNVFSCSVMHEALHNHYTQKSLSLSPGKGSEAAAKEAAAKEAAAKEAAAKEAAAKNSTCPLGPGRCCRLHTVRASLEDLGWADWVLSPREVQVTMCIGACPSQFRAANMHAQIKTRLHRLKPDTVPAPCCVPASYNPMVLIQKTDTGVSLQTYDDLLAKDCHCI chain 2: APEAAGGPSVFLFPPKPKDTLMISRTPEVTCVVVDVSHEDPEVKFNWYVDGVEVHNAKTKPREEQYASTYRVVSVLTVLHQDWLNGKEYKCKVSNKALPAPIEKTISKAKGQPREPQVYTLPPSREEMTKNQVSLSCAVKGFYPSDIAVEWESNGQPENNYKTTPPVLDSDGSFFLVSKLTVDKSRWQQGNVFSCSVMHEALHNHYTQKSLSLSPGK
7.8 nM,81%,FM11-3 + Fc_hole long-acting GDF15 fusion protein (dimer) (Fc fusion) chain 1: APEAAGGPSVFLFPPKPKDTLMISRTPEVTCVVVDVSHEDPEVKFNWYVDGVEVHNAKTKPREEQYASTYRVVSVLTVLHQDWLNGKEYKCKVSNKALPAPIEKTISKAKGQPREPQVYTLPPSREEMTKNQVSLWCLVKGFYPSDIAVEWESNGQPENNYKTTPPVLDSDGSFFLYSKLTVDKSRWQQGNVFSCSVMHEALHNHYTQKSLSLSPGKGSGGGGSGGGGSGGGGSGGGGSGGGGSGGGGSGGGGSNSTCPLGPGRCCRLHTVRASLEDLGWADWVLSPREVQVTMCIGACPSQFRAANMHAQIKTRLHRLKPDTVPAPCCVPASYNPMVLIQKTDTGVSLQTYDDLLAKDCHCI chain 2: APEAAGGPSVFLFPPKPKDTLMISRTPEVTCVVVDVSHEDPEVKFNWYVDGVEVHNAKTKPREEQYASTYRVVSVLTVLHQDWLNGKEYKCKVSNKALPAPIEKTISKAKGQPREPQVYTLPPSREEMTKNQVSLSCAVKGFYPSDIAVEWESNGQPENNYKTTPPVLDSDGSFFLVSKLTVDKSRWQQGNVFSCSVMHEALHNHYTQKSLSLSPGK

# Source: patent US20240238380A1 (YUHAN, published 2024)
